# From patent US20080008651A1, “Screening Methods and Transgenic Animals for the Treatment of Beta-Globin Related Disease and Conditions” (THE REGENTS OF THE UNIVERSITY OF MICHIGAN, published 2008)
# T1: DRED complex (TR2/TR4 heterodimer DNA-binding core) (Mus musculus, UniProt Q505F1;P49117 Q505F1:1-590,P49117:1-596)
# T1 sequence 1: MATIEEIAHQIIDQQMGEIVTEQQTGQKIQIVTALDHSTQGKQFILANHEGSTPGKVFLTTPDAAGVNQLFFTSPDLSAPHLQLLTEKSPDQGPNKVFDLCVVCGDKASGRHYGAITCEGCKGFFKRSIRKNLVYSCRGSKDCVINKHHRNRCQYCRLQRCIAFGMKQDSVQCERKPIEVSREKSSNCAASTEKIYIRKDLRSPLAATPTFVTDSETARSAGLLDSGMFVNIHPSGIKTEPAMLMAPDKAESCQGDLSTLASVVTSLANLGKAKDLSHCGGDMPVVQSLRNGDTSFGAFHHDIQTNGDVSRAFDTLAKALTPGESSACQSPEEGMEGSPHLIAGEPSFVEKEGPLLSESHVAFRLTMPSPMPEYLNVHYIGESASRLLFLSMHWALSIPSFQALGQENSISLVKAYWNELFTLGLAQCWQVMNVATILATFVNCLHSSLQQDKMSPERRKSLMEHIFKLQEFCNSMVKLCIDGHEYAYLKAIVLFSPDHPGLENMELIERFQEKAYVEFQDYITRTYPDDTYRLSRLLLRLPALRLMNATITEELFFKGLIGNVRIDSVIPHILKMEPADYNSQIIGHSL
# T1 sequence 2: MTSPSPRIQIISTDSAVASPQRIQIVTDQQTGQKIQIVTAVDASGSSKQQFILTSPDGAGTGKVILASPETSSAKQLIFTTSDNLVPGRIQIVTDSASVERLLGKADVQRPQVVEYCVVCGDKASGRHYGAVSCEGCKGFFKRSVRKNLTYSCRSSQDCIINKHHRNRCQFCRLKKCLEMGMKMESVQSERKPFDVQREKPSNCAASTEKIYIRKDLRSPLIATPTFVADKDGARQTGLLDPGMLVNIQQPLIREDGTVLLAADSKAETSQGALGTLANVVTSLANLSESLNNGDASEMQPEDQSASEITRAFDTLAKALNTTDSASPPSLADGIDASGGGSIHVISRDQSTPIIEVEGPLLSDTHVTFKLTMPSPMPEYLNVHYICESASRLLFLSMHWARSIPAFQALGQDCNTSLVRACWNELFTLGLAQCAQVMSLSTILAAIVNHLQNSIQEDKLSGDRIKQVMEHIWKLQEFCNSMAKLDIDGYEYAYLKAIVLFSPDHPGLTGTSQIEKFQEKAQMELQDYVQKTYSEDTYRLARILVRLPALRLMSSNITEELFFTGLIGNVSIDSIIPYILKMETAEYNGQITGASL
# T2: mouse TR4 orphan nuclear receptor, Flag-tagged at the amino terminus, wild type (mouse, UniProt P49117 1-596)
# T2 construct: also called wild type TR4; not shown: Flag tag at the amino terminus
# T2 sequence (looked up): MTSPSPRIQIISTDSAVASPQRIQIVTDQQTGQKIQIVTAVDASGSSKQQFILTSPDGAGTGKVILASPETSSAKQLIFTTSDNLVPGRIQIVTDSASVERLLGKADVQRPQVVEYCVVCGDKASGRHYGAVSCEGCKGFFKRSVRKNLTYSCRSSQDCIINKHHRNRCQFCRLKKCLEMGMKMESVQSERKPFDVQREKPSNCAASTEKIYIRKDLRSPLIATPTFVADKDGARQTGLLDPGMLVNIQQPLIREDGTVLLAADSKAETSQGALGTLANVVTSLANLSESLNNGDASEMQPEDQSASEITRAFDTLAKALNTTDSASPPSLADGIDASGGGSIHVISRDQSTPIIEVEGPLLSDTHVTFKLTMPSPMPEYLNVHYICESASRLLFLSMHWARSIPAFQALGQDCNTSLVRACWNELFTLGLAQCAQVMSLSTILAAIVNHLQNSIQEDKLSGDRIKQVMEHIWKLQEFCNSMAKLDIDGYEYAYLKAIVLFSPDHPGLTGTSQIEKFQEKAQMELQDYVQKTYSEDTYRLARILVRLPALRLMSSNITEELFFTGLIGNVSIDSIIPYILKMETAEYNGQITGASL
# Tests used:
# [1] = molecular target: TR4 coexpressed with dnTR2 dnTR2 chain: three Lys/Arg to Glu in DNA binding domain (Mus musculus) (UniProt P49117+Q505F1); assay: EMSA; settings: TR4 binding diminished by about 80% (TR4 alone = 100%)
# [2] = molecular target: TR4 coexpressed with dnTR4 dnTR4 chain: three Lys/Arg to Glu in DNA binding domain (Mus musculus) (UniProt P49117+P49117); assay: EMSA; settings: TR4 binding diminished by about 80% (TR4 alone = 100%)
# [3] = molecular target: T1, DRED complex (TR2/TR4 heterodimer …); assay: competition; EMSA competition vs 1.1 nM 32P epsilon distal DR probe; settings: protein: extract; tags: native, MEL mouse erythroleukemia cell nuclear extract; blunt ended
# Protocol: (§1) Electrophoretic Gel Mobility Shift Assay (EMSA). Nuclear extracts preparation, binding reactions, and electrophoresis were performed as described previously (Tanimoto et al., 2000). The following blunt ended oligonucleotides were used as probes or competitors in EMSA (only sense strands are shown): ε distal DR, 5′-[…]-3′ (SEQ ID NO: 19); ε proximal DR, 5′-[…]-3′ (SEQ ID NO: 20); γ DR, 5′-[…]-3′ (SEQ ID NO: 21); β, 5′-[…]-3′ (SEQ ID NO: 22); εy distal DR, 5′-[…]-3′ (SEQ ID NO: 23); εy proximal DR, 5′-[…]-3′ (SEQ ID NO: 24); βh1 DR, 5′-[…]-3′ (SEQ ID NO: 25); β^major, 5′-[…]-3′ (SEQ ID NO: 26).
# (§2) Free and bound ³²P-labeled probe was quantified on a PhosphoImager. The competitive binding experiments were then performed using 1.1 nM ³²P-labeled ε distal DR probe and 70 pM to 2 μM of each competitor double-strand oligonucleotide to determine the 50% inhibitory concentration (IC₅₀). The equilibrium dissociation constant (Ki) for each competitor was then determined by the following equation (Cheng and Prusoff, 1973): […]
# [4] = molecular target: T2, mouse TR4 orphan nuclear receptor, …; assay: EMSA of nuclear extracts of co-transfected 293T cells on the ε distal DR probe; heterodimer inferred
# Protocol: 20 μg of expression plasmid was mixed with 40 μl of lipofectamine 2000 (Invitrogen) and then added to each dish according to the manufacturer's instruction. Forty-eight hours after transfection, cells were harvested and nuclear extracts were prepared.
# as §1
# After transfection, nuclear extracts were prepared and examined for binding to the ε distal-DR element by EMSA (FIG. 1C). […] When TR2 and TR4 were coexpressed to generate TR2/TR4 heterodimers (Tanabe et al., 2002), generated an even more intense signal.
# [5] = molecular target: T1, DRED complex (TR2/TR4 heterodimer …); assay: competition; EMSA competition vs 1.1 nM 32P epsilon distal DR probe; judged too low for functional association; settings: protein: extract; tags: native, MEL mouse erythroleukemia cell nuclear extract; blunt ended
# Protocol: as §1, §2
# [6] = molecular target: T1, DRED complex (TR2/TR4 heterodimer …); assay: competition; EMSA competition vs 1.1 nM 32P epsilon distal DR probe; unlabeled competitor; settings: protein: extract; tags: native, MEL mouse erythroleukemia cell nuclear extract; label: 32P (probe); blunt ended
# Protocol: as §1, §2
# [7] = molecular target: T1, DRED complex (TR2/TR4 heterodimer …); assay: EMSA; saturation binding, MEL nuclear extract; settings: protein: extract; tags: native, MEL mouse erythroleukemia cell nuclear extract; label: 32P (probe); blunt ended
# Protocol: as §1, §2
Molecule,Ki [3],Ki [5],other results
CCCTGAGGACACAGGTCAGCCTTG (double strand) [epsilon distal DR],–,–,binding signal [1]: 20%; binding signal [2]: 20%
beta-h1 DR (dsDNA) DNA 1: CCCAGACTCTCTTGACCAATAGCCTCAGAGTCCT DNA 2: AGGACTCTGAGGCTATTGGTCAAGAGAGTCTGGG,18 nM,–,–
"mouse TR2 orphan nuclear receptor, Flag-tagged at the amino terminus, wild type (receptor, UniProt Q505F1 1-590, looked up, also called wild type TR2; not shown: Flag tag at the amino terminus) MATIEEIAHQIIDQQMGEIVTEQQTGQKIQIVTALDHSTQGKQFILANHEGSTPGKVFLTTPDAAGVNQLFFTSPDLSAPHLQLLTEKSPDQGPNKVFDLCVVCGDKASGRHYGAITCEGCKGFFKRSIRKNLVYSCRGSKDCVINKHHRNRCQYCRLQRCIAFGMKQDSVQCERKPIEVSREKSSNCAASTEKIYIRKDLRSPLAATPTFVTDSETARSAGLLDSGMFVNIHPSGIKTEPAMLMAPDKAESCQGDLSTLASVVTSLANLGKAKDLSHCGGDMPVVQSLRNGDTSFGAFHHDIQTNGDVSRAFDTLAKALTPGESSACQSPEEGMEGSPHLIAGEPSFVEKEGPLLSESHVAFRLTMPSPMPEYLNVHYIGESASRLLFLSMHWALSIPSFQALGQENSISLVKAYWNELFTLGLAQCWQVMNVATILATFVNCLHSSLQQDKMSPERRKSLMEHIFKLQEFCNSMVKLCIDGHEYAYLKAIVLFSPDHPGLENMELIERFQEKAYVEFQDYITRTYPDDTYRLSRLLLRLPALRLMNATITEELFFKGLIGNVRIDSVIPHILKMEPADYNSQIIGHSL",–,–,binding result [4]: binds
epsilon-y distal DR (dsDNA) DNA 1: CCATGAGGACCACGGGTCAGGCTGA DNA 2: TCAGCCTGACCCGTGGTCCTCATGG,4.1 nM,–,–
gamma DR (dsDNA) DNA 1: GCCTTGCCTTGACCAATAGCCTTGACAA DNA 2: TTGTCAAGGCTATTGGTCAAGGCAAGGC,13 nM,–,–
epsilon proximal DR (dsDNA) DNA 1: CAGCCTTGACCAATGACTTTTA DNA 2: TAAAAGTCATTGGTCAAGGCTG,2.8 nM,–,–
beta (dsDNA) DNA 1: TAGGGTTGGCCAATCTACTCCC DNA 2: GGGAGTAGATTGGCCAACCCTA,–,420 nM,–
epsilon-y proximal DR (dsDNA) DNA 1: TCAGGCTGACCAATGGCTTCAAA DNA 2: TTTGAAGCCATTGGTCAGCCTGA,–,59 nM,–
beta-major (dsDNA) DNA 1: TGGTAAGGGCCAATCTGCTCACA DNA 2: TGTGAGCAGATTGGCCCTTACCA,–,170 nM,–
epsilon distal DR (dsDNA) DNA 1: CCCTGAGGACACAGGTCAGCCTTG DNA 2: CAAGGCTGACCTGTGTCCTCAGGG,–,–,Ki [6]: 0.97 nM; Kd [7]: 0.56 nM
